{
  "source": "paper PMC5150637",
  "tested_on": "T1, MBP-SphR (Pseudomonas aeruginosa (strain PAO1?)), ORF:ae0b4f1c",
  "T1 sequence": "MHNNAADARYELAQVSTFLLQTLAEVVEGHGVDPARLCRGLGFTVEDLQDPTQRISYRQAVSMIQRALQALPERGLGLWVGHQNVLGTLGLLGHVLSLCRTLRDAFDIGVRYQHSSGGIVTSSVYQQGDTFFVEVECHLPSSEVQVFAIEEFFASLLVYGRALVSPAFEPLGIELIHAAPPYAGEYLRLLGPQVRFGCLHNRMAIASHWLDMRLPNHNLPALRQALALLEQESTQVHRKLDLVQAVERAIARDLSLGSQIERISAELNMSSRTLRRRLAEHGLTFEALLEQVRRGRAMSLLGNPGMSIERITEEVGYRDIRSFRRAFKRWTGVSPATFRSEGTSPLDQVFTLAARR",
  "assay": "competition",
  "details": "10 mM Tris-HCl pH 7.5, 50 mM KCl, 1 mM DTT, 1 mM EDTA, 3 mM MgCl2, 50 ug/ml BSA, 4% glycerol, 0.05% NP-40, 50 ng/ul poly(dI-dC), 30 C, 30 min",
  "data": [
    {"sequence": "GGTTGCCACTGTAGTGCCAGGGTGGTGGAGTCGAGGGGGGCGTAGCGGACAGGAAGGGGGTGAGCGCCGGCCATCCTGCATGGACGGCAAGGCAGGCGGGTAAAAAAAGGCCGCCTGCGT (double strand) [cerN promoter -200 to -81, unlabeled competitor]", "values": [
      {"measurement": "binding", "value": "binds"}
    ]}
  ]
}
